# Measured values published in patent US20230140797A1 (published 2023).
# Read-outs that look alike come from different tables or passages of the source.
# Tests used:
# [1] = biological target: T1, human FcγRIIa type H (131His) extracellular domain with C-terminal His tag (human, UniProt P12318 34-217); experiment: SPR
# T1 sequence (looked up): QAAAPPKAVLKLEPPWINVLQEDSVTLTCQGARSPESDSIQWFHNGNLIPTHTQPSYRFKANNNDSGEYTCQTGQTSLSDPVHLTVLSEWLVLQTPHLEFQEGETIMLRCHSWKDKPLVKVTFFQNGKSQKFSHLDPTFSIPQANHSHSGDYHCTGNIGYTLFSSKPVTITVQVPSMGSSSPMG
# [2] = biological target: T2, human FcγRIIb extracellular domain with C-terminal His tag (human, UniProt P31994 43-217); experiment: ratio of SPR KDs
# T2 sequence (looked up): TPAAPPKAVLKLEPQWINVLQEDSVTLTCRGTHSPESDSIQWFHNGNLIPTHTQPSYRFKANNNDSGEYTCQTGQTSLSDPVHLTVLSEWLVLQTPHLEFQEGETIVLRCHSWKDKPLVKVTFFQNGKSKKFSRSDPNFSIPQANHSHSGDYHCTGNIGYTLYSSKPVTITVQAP
# [3] = biological target: T2, human FcγRIIb extracellular domain with …; experiment: ratio of SPR KDs; remark: listed apart in the source
# [4] = biological target: human FcγRIa extracellular domain with C-terminal His tag (human, UniProt P12314 16-292); experiment: SPR
# [5] = biological target: T3, human FcγRIIb extracellular domain with C-terminal His tag (human, UniProt P31994 43-217); experiment: SPR
# T3 sequence (looked up): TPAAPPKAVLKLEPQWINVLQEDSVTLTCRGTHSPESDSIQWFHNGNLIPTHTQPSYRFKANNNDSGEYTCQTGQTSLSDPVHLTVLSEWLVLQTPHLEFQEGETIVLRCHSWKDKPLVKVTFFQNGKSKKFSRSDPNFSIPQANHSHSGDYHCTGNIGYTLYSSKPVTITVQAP
# [6] = biological target: T3, human FcγRIIb extracellular domain with …; experiment: SPR; remark: listed apart in the source
# [7] = biological target: T2, human FcγRIIb extracellular domain with …; experiment: ratio of SPR KDs; remark: listed apart in the source
# [8] = biological target: T1, human FcγRIIa type H (131His) …; experiment: SPR; remark: listed apart in the source
# [9] = biological target: human FcγRIIIa type V extracellular domain with C-terminal His tag (human, UniProt P08637 17-208); experiment: SPR
# Chain of human FcγRIIIa type V extracellular domain with C-terminal His tag (P08637 17-208 F176V): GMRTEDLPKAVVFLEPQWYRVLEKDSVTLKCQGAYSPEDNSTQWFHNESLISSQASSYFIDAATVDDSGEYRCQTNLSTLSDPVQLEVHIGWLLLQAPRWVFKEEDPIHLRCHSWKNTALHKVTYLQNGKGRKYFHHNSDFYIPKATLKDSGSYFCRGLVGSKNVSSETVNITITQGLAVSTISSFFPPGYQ
# Chain of human FcγRIa extracellular domain with C-terminal His tag (P12314 16-292): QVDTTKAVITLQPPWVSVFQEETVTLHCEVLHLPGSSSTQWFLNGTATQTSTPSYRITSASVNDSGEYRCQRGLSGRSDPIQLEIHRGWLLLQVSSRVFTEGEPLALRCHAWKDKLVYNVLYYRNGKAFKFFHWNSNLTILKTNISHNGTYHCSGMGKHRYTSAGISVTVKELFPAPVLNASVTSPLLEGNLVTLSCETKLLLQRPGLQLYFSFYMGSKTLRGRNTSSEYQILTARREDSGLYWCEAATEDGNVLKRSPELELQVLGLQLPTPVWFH
KD (IIaR)/KD (IIb) [2],Kd [4] [nM],KD (IIb) of parent polypeptide/KD (IIb) of altered polypeptide [7],other results,Binder
33.3,,,Kd [1]: 40 nM,"IL6R-BP487/IL6R-L (antibody, human IgG1, kappa) heavy: QVQLQESGPGLVKPSETLSLTCAVSGHSISHDHAWSWVRQPPGEGLEWIGFISYSGITNYNPSLQGRVTISRDNSKNTLYLQMNSLRAEDTAVYYCARSLARTTAMDYWGEGTLVTVSSASTKGPSVFPLAPSSKSTSGGTAALGCLVKDYFPEPVTVSWNSGALTSGVHTFPAVLQSSGLYSLSSVVTVPSSSLGTQTYICNVNHKPSNTKVDKKVEPKSCDKTHTCPPCPAPDLLGDDSVFLFPPKPKDTLMISRTPEVTCVVIDVAEEDGEVKFNWYVDGVEVHNAKTKPREEQYNSTYRVVSVLTVLHQDWLNGKEYKCKVSNKALPRPIEKTISKAKGQPREPQVYTLPPSRDELTKNQVSLTCLVKGFYPSDIAVEWESNGQPENNYKTTPMVLDSDGSFFLYSKLTVDKSRWQQGNVFSCSVMHEALHNHYTQESLSLSP light: not shown"
,,,Kd [1]: 1800 nM; KD (IIaH)/KD (IIb) [3]: 865,"IL6R-BP488/IL6R-L (antibody, human IgG1, kappa) heavy: QVQLQESGPGLVKPSETLSLTCAVSGHSISHDHAWSWVRQPPGEGLEWIGFISYSGITNYNPSLQGRVTISRDNSKNTLYLQMNSLRAEDTAVYYCARSLARTTAMDYWGEGTLVTVSSASTKGPSVFPLAPSSKSTSGGTAALGCLVKDYFPEPVTVSWNSGALTSGVHTFPAVLQSSGLYSLSSVVTVPSSSLGTQTYICNVNHKPSNTKVDKKVEPKSCDKTHTCPPCPAPDLLGDDSVFLFPPKPKDTLMISRTPEVTCVVIDVAEEDGEVKFNWYVDGVEVHNAKTKPREEQDNSTYRVVSVLTVLHQDWLNGKEYKCKVSNKALPRPIEKTISKAKGQPREPQVYTLPPSRDELTKNQVSLTCLVKGFYPSDIAVEWESNGQPENNYKTTPPVLDSDGSFFLYSKLTVDKSRWQQGNVFSCSVMHEALHNHYTQESLSLSP light: not shown"
,49,,KD (IIaH)/KD (IIb) [5]: 692; KD (IIaR)/KD (IIb) [6]: 35.4,"IL6R-BP556/IL6R-L (antibody, human IgG1, kappa) heavy: QVQLQESGPGLVKPSETLSLTCAVSGHSISHDHAWSWVRQPPGEGLEWIGFISYSGITNYNPSLQGRVTISRDNSKNTLYLQMNSLRAEDTAVYYCARSLARTTAMDYWGEGTLVTVSSASTKGPSVFPLAPSSKSTSGGTAALGCLVKDYFPEPVTVSWNSGALTSGVHTFPAVLQSSGLYSLSSVVTVPSSSLGTQTYICNVNHKPSNTKVDKKVEPKSCDKTHTCPPCPAPELLGDDSVFLFPPKPKDTLMISRTPEVTCVVIDVGEEDGEVKFNWYVDGVEVHNAKTKPREEQDNSTYRVVSVLTVLHQDWLNGKEYKCKVSNKALPRPIEKTISKAKGQPREPQVYTLPPSRDELTKNQVSLTCLVKGFYPSDIAVEWESNGQPENNYKTTPPVLDSDGSFFLYSKLTVDKSRWQQGNVFSCSVMHEALHNHYTQESLSLSP light: not shown"
38.3,,1020,,"IL6R-BP491/IL6R-L (antibody, human IgG1, kappa) heavy: QVQLQESGPGLVKPSETLSLTCAVSGHSISHDHAWSWVRQPPGEGLEWIGFISYSGITNYNPSLQGRVTISRDNSKNTLYLQMNSLRAEDTAVYYCARSLARTTAMDYWGEGTLVTVSSASTKGPSVFPLAPSSKSTSGGTAALGCLVKDYFPEPVTVSWNSGALTSGVHTFPAVLQSSGLYSLSSVVTVPSSSLGTQTYICNVNHKPSNTKVDKKVEPKSCDKTHTCPPCPAPELLGDDSVFLFPPKPKDTLMISRTPEVTCVVIDVAEEDGEVKFNWYVDGVEVHNAKTKPREEQDNSTYRVVSVLTVLHQDWLNGKEYKCKVSNKALPRPIEKTISKAKGQPREPQVYTLPPSRDELTKNQVSLTCLVKGFYPSDIAVEWESNGQPENNYKTTPPVLDSDGSFFLYSKLTVDKSRWQQGNVFSCSVMHEALHNHYTQESLSLSP light: not shown"
,1800,,KD (IIaH)/KD (IIb) [5]: 696; KD (IIaR)/KD (IIb) [6]: 35.9,"BP549 (antibody, human IgG1, kappa) heavy: QVQLQESGPGLVKPSETLSLTCAVSGHSISHDHAWSWVRQPPGEGLEWIGFISYSGITNYNPSLQGRVTISRDNSKNTLYLQMNSLRAEDTAVYYCARSLARTTAMDYWGEGTLVTVSSASTKGPSVFPLAPSSKSTSGGTAALGCLVKDYFPEPVTVSWNSGALTSGVHTFPAVLQSSGLYSLSSVVTVPSSSLGTQTYICNVNHKPSNTKVDKKVEPKSCDKTHTCPPCPAPELLGDDSVFLFPPKPKDTLMISRTPEVTCVVVDVGEEDGEVKFNWYVDGVEVHNAKTKPREEQYNSTYRVVSVLTVLHQDWLNGKEYKCKVSNKALPRPIEKTISKAKGQPREPQVYTLPPSRDELTKNQVSLTCLVKGFYPSDIAVEWESNGQPENNYKTTPPVLDSDGSFFLYSKLTVDKSRWQQGNVFSCSVMHEALHNHYTQESLSLSP light: not shown"
30.3,,,KD (IIaH)/KD (IIb) [3]: 670; Kd [8]: 15000 nM; Kd [9]: 30000 nM,"IL6R-BP492/IL6R-L (antibody, human IgG1, kappa) heavy: QVQLQESGPGLVKPSETLSLTCAVSGHSISHDHAWSWVRQPPGEGLEWIGFISYSGITNYNPSLQGRVTISRDNSKNTLYLQMNSLRAEDTAVYYCARSLARTTAMDYWGEGTLVTVSSASTKGPSVFPLAPSSKSTSGGTAALGCLVKDYFPEPVTVSWNSGALTSGVHTFPAVLQSSGLYSLSSVVTVPSSSLGTQTYICNVNHKPSNTKVDKKVEPKSCDKTHTCPPCPAPELLGGDSVFLFPPKPKDTLMISRTPEVTCVVIDVAEEDGEVKFNWYVDGVEVHNAKTKPREEQYNSTYRVVSVLTVLHQDWLNGKEYKCKVSNKALPAPIEKTISKAKGQPREPQVYTLPPSRDELTKNQVSLTCLVKGFYPSDIAVEWESNGQPENNYKTTPPVLDSDGSFFLYSKLTVDKSRWQQGNVFSCSVMHEALHNHYTQESLSLSP light: not shown"
30.3,,1870,,"IL6R-BP498/IL6R-L (antibody, human IgG1, kappa) heavy: QVQLQESGPGLVKPSETLSLTCAVSGHSISHDHAWSWVRQPPGEGLEWIGFISYSGITNYNPSLQGRVTISRDNSKNTLYLQMNSLRAEDTAVYYCARSLARTTAMDYWGEGTLVTVSSASTKGPSVFPLAPSSKSTSGGTAALGCLVKDYFPEPVTVSWNSGALTSGVHTFPAVLQSSGLYSLSSVVTVPSSSLGTQTYICNVNHKPSNTKVDKKVEPKSCDKTHTCPPCPAPDLLGDDSVFLFPPKPKDTLMISRTPEVTCVVIDVAEEDGEVKFNWYVDGVEVHNAKTKPREEQYNSTYRVVSVLTVLHQDWLNGKEYKCKVSNKALPRPIEKTISKAKGQPREPQVYTLPPSRDELTKNQVSLTCLVKGFYPSDIAVEWESNGQPENNYKTTPLVLDSDGSFFLYSKLTVDKSRWQQGNVFSCSVMHEALHNHYTQESLSLSP light: not shown"
,,166,,"IL6R-BP496/IL6R-L (antibody, human IgG1, kappa) heavy: QVQLQESGPGLVKPSETLSLTCAVSGHSISHDHAWSWVRQPPGEGLEWIGFISYSGITNYNPSLQGRVTISRDNSKNTLYLQMNSLRAEDTAVYYCARSLARTTAMDYWGEGTLVTVSSASTKGPSVFPLAPSSKSTSGGTAALGCLVKDYFPEPVTVSWNSGALTSGVHTFPAVLQSSGLYSLSSVVTVPSSSLGTQTYICNVNHKPSNTKVDKKVEPKSCDKTHTCPPCPAPDLLGDDSVFLFPPKPKDTLMISRTPEVTCVVIDVAEEDGEVKFNWYVDGVEVHNAKTKPREEQDNSTYRVVSVLTVLHQDWLNGKEYKCKVSNKALPAPIEKTISKAKGQPREPQVYTLPPSRDELTKNQVSLTCLVKGFYPSDIAVEWESNGQPENNYKTTPPVLDSDGSFFLYSKLTVDKSRWQQGNVFSCSVMHEALHNHYTQESLSLSP light: not shown"
,1.1,,,"IL6R-BP535/IL6R-L (antibody, human IgG1, kappa) heavy: QVQLQESGPGLVKPSETLSLTCAVSGHSISHDHAWSWVRQPPGEGLEWIGFISYSGITNYNPSLQGRVTISRDNSKNTLYLQMNSLRAEDTAVYYCARSLARTTAMDYWGEGTLVTVSSASTKGPSVFPLAPSSKSTSGGTAALGCLVKDYFPEPVTVSWNSGALTSGVHTFPAVLQSSGLYSLSSVVTVPSSSLGTQTYICNVNHKPSNTKVDKKVEPKSCDKTHTCPPCPAPDLLGDDSVFLFPPKPKDTLMISRTPEVTCVVIDVGEEDGEVKFNWYVDGVEVHNAKTKPREEQDNSTYRVVSVLTVLHQDWLNGKEYKCKVSNKGLPRPIEKTISKAKGQPREPQVYTLPPSRDELTKNQVSLTCLVKGFYPSDIAVEWESNGQPENNYKTTPMVLDSDGSFFLYSKLTVDKSRWQQGNVFSCSVMHEALHNHYTQESLSLSP light: not shown"
